Assay results as given in the supplement of paper PMC10126150.
± gives the standard deviation of the averaged measurements.

These sequences were tested on ATP (assay: switch fluorescence ratio, 500 uM ATP over buffer (Cy3 cluster intensity, sum of 5 cycles each) (fold (ratio)); higher = stronger signal-on switching upon ATP binding; sequences stand for … in TCGTCGGCAGCGTCAGATGTGTATAAGAGACAGTTTTTTTTTTTTTTTTTTTTTTTTT…TC). Conditions: aptamer strand: ATP DNA aptamer (quencher-CACCTGGGGGAGTATTGCGGAGGAAGG + anchor), 100 nM annealed; ATP concentration: 500 uM.
Procedure, shortened: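 Cy3-labelled switching-strand clusters on a modified Illumina MiSeq flow-cell were annealed to 100 nM quencher-labelled ATP aptamer and imaged first in selection buffer, then after 15 min with 500 uM ATP at 22 °C. NaOH stripping and re-annealing separated each of five buffer/ATP cycles, and clusters outside 100-1000 RFU were excluded. The fluorescence ratio sums target-cycle Cy3 intensity over buffer-cycle Cy3 intensity per cluster and averages it per switch-domain sequence.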
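Note: ATP exposure 15 min at 22 °C before imaging.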

Sequence | switch fluorescence ratio
GGTCTACTAG | 0.999 ± 0.04
ATCGGGGTAG | 0.9985 ± 0.0038
GGGCTCAGAA | 1.03 ± 0.028
GGTATCGGTA | 1.005 ± 0.0094
AGTGTGAGGC | 1.03 ± 0.028
GAACTATTCA | 0.9848 ± 0.0054
TTTTGAAGGA | 1.01 ± 0.027
GAAGGGGCCG | 1.12 ± 0.07
AGAAGATCAG | 1.02 ± 0.015
CATACATCCG | 1.07 ± 0.038
GGTGCTTTTT | 0.987 ± 0.023
GGCTGGGGTA | 0.9884 ± 0.0032
TCAGGGTTGC | 1.03 ± 0.025
CAAAGTGGTG | 0.97 ± 0.053
TTAGCATTAG | 1.23 ± 0.04
GATTCTTTAC | 1.03 ± 0.029
AAAAAATTTT | 1.01 ± 0.023
GGAGGGGGGG | 1.02 ± 0.042
ATGTTTAAG | 1.012 ± 0.0094
GATTTTGACG | 1.04 ± 0.067
ATCATATATC | 0.983 ± 0.089
AATCAGGCGA | 1.013 ± 0.0032
TATCTTATTT | 0.9874 ± 0.0093

Sequence | switch fluorescence ratio
TATAGTTGTT | 0.992 ± 0.018
AGGTGAAGGG | 1.02 ± 0.018
ATTTGTGGTG | 1.01 ± 0.023
CGGCTTGATA | 1.01 ± 0.033
TTACCAGTTG | 1.04 ± 0.031
TAAATGGGTT | 1 ± 0.027
TATCTTTTTT | 0.98 ± 0.024
GAAGGGGGAG | 0.996 ± 0.028
AATTTTTGTC | 1.01 ± 0.023
TACAGACTGT | 1.04 ± 0.021
TGAAAGGGAA | 0.9898 ± 0.0074
GAAGTGGGTG | 1.11 ± 0.17
GATATCCGTA | 0.962 ± 0.015
TTCGTCGGAT | 0.9991 ± 0.0037
GTTTTGGTG | 1.08 ± 0.12
CAGTGGGAGA | 1.025 ± 0.0088
TGGAGCTCTG | 0.981 ± 0.027
TCAGGGTGCT | 1.1 ± 0.029
TAGGTCTTAA | 0.995 ± 0.013
GGGGCTGCAG | 1.09 ± 0.11
TTACGGGGAG | 1 ± 0.034
AGTTGGGTCA | 0.993 ± 0.044
AAACCAGGGG | 1.54 ± 0.11

Sequence | switch fluorescence ratio
GGGTAGGCGT | 0.999 ± 0.062
GAATGGGATT | 0.976 ± 0.018
AGAAAAGGTG | 1.19 ± 0.13
TAGGGGGGGC | 0.978 ± 0.022
GCCCGTTTCG | 0.9989 ± 0.0082
ATATAAGTTC | 1.06 ± 0.055
TAGTAGAGCT | 1.009 ± 0.002
TATAATTCTA | 0.9844 ± 0.0075
TGGATGTCGT | 1.008 ± 0.0094
GGAAAGTACG | 1.16 ± 0.045
ATAGTGAGTT | 1 ± 0.016
TAATGCGGTT | 1.016 ± 0.004
GGCTGGTTGG | 1.01 ± 0.017
AGGTCGTTTT | 0.991 ± 0.027
TTGGTATGTA | 1 ± 0.018
GGCTATTGGA | 0.971 ± 0.012
CAGGCGGAGA | 0.969 ± 0.026
GAAACGCTTT | 1.03 ± 0.057
AAATCATATT | 0.968 ± 0.0054
TGTGGTGAA | 1.01 ± 0.011
CGCAAATCAA | 1.38 ± 0.073
ACCGTAGGTG | 1.03 ± 0.034
TGTCGGTGTT | 0.971 ± 0.029

Sequence | switch fluorescence ratio
GGTTATCGAT | 0.999 ± 0.0014
ATGTGAGAAT | 0.998 ± 0.037
TCGGACGTCG | 1.07 ± 0.019
TAAAAGGTTG | 0.989 ± 0.033
TTTTCGTCTC | 1.02 ± 0.019
TAAATAGCTT | 1.08 ± 0.17
TCGCGCCGGT | 1.005 ± 0.0062
TAAAAAACCT | 1.57 ± 0.39
TTATGAAAGG | 0.968 ± 0.03
AAGGGTATTT | 1.01 ± 0.028
ATTCCGGGGA | 1.23 ± 0.29
GAGGTGAGGG | 1 ± 0.057
TTATGAGTTG | 0.963 ± 0.029
TATACGGAAT | 1.16 ± 0.051
GATCGAACGT | 1.017 ± 0.0085
TTTCAAAAGT | 1.006 ± 0.006
GAGTATGAAG | 1.01 ± 0.031
AATGCGTTTT | 1.04 ± 0.023
CGGACTAGGT | 1.02 ± 0.011
TTTTTTTAAG | 1 ± 0.018
CTTAAAAGTA | 0.972 ± 0.018
GTTTTACGTG | 0.998 ± 0.024
TAGGGGTA | 1.01 ± 0.021

Sequence | switch fluorescence ratio
TCTCCAGATA | 1.12 ± 0.034
AATGGGTGTG | 1.01 ± 0.023
TGAAAGTTGT | 1.02 ± 0.029
GGACATTTAG | 1.03 ± 0.017
CTTGAGTGTT | 0.996 ± 0.011
AAGGGAGATT | 0.968 ± 0.011
GGGTTGTGTA | 1 ± 0.014
TGTAATTGGT | 1.003 ± 0.0089
TAATCAGTGC | 0.998 ± 0.068
GTGAGGCCGC | 1.0626 ± 0.001
GATTTAGTAA | 0.9759 ± 0.0069
TTAGGGCTGC | 0.98664 ± 0.00045
TCAGACTGCG | 0.999 ± 0.023
AGGGCTGCGT | 0.984 ± 0.017
AACGGGGTGG | 0.976 ± 0.044
TTATGGGAAG | 0.998 ± 0.013
GGTGTAGAGG | 1.012 ± 0.0022
GATTCAGTAC | 1.61 ± 0.056
ATCATTATAT | 0.99007 ± 0.00051
GGGGCGGCAG | 0.998 ± 0.013
ATAACTACTA | 1.06 ± 0.015
GAAAAAAAGC | 1.01 ± 0.053
TTAATCAATG | 0.998 ± 0.029

Sequence | switch fluorescence ratio
CTCGTGTTGG | 0.989 ± 0.018
GGGCGGGGGG | 1.01 ± 0.03
TAATCTGGCG | 1.026 ± 0.0054
GCGGCTGG | 0.963 ± 0.022
TCCGTCAGCA | 4.04 ± 0.52
CAGCGGGGGA | 1.012 ± 0.0014
CATTATGTTG | 0.969 ± 0.036
TGGTTCGGGT | 1.03 ± 0.036
AAGTGGAATT | 1.03 ± 0.018
TCTGGGGGGG | 0.99 ± 0.052
CATAAAGATG | 1.053 ± 0.01
ATTTTATCAG | 1.02 ± 0.018
GCTTTACTCA | 1.36 ± 0.049
AATATAAAGG | 1 ± 0.031
GGGGGGGTGA | 1.01 ± 0.038
TGATCGGGGT | 1.02 ± 0.018
TACCGTGTCC | 1.11 ± 0.06
GGGGGTGGGC | 1.03 ± 0.035
GGGGAGAATG | 0.9802 ± 0.0069
CGTGGGCAAG | 0.996 ± 0.021
ATGTAGGGGG | 0.988 ± 0.013
AGGGGGAGGT | 0.975 ± 0.017
ACTTCAGATT | 0.995 ± 0.012

Sequence | switch fluorescence ratio
CTGGGGCGTT | 0.983 ± 0.0034
GTATTATGCG | 1.02 ± 0.028
TTAAGTGGCT | 1.016 ± 0.0095
CGGGGCACGT | 1.16 ± 0.23
TATAGCATGT | 1.038 ± 0.007
GAATGGGGGG | 1.01 ± 0.078
GAACATTTTT | 1.03 ± 0.021
AACGAGGCAG | 1.21 ± 0.038
TAAGTTCGCA | 1.05 ± 0.024
GGGGGGCGGT | 0.989 ± 0.015
ATAGAAGCGG | 0.9684 ± 0.0029
CATGGTAAGT | 0.994 ± 0.053
CCTAGGGTCA | 1.01 ± 0.018
TTTCTTTCGG | 1.03 ± 0.048
CAGAGACCTG | 1.02 ± 0.057
ATTGGGCTGT | 0.993 ± 0.016
ATGAACATTT | 1 ± 0.033
ATTTTTTTCT | 1.04 ± 0.04
TGGGATTCGG | 1.03 ± 0.092
